Results taken from publication PMC6564026, “An autoinducer-independent RhlR quorum-sensing receptor enables analysis of RhlR regulation”.

Experiments:
MBP-RhlR* = MBP-RhlR* (Pseudomonas aeruginosa, UniProt P54292 1-241, Y64F;W68F;V133F); experiment: ITC; no ligand; EMSA: 20 mM Tris-HCl pH 8, 50 mM KCl, 1 mM EDTA, 1 mM DTT, 1.5 mg/mL poly-IC, 50 ug/mL BSA, 10% glycerol, room temp 15 min; ITC: 25 C, S200 buffer (200 mM NaCl, 20 mM Tris-HCl pH 8, 1 mM DTT), 20 uM DNA titrated into 1 uM protein; conditions: protein: recombinant; tags: N-terminal MBP (pMALC2x); chain copies: 2; duplex not explicitly stated
MBP-RhlR:mBTL = MBP-RhlR:mBTL (Pseudomonas aeruginosa, UniProt P54292 1-241); experiment: ITC; mBTL; EMSA: 20 mM Tris-HCl pH 8, 50 mM KCl, 1 mM EDTA, 1 mM DTT, 1.5 mg/mL poly-IC, 50 ug/mL BSA, 10% glycerol, room temp 15 min; ITC: 25 C, S200 buffer (200 mM NaCl, 20 mM Tris-HCl pH 8, 1 mM DTT), 20 uM DNA titrated into 1 uM protein; conditions: protein: recombinant; tags: N-terminal MBP (pMALC2x); chain copies: 2; duplex not explicitly stated

B1: rhl-box consensus (dsDNA)
DNA 1: ACCTGCCAGATTTCGCAGGT
DNA 2: ACCTGCGAAATCTGGCAGGT
B1 showed a Kd (MBP-RhlR*) of 34 nM and a Kd (MBP-RhlR:mBTL) of 23 nM.
